Laboratory results reported in the supplement of paper PMC10724198.
± gives the standard deviation of the averaged measurements.

Key:
Saccharomyces cerevisiae [1] = experiment: protein stability index of tFT-peptide fusion (C-terminal peptide) (PSI (0-1 scale)); higher = more stable (slower turnover); settings: genetic background: wild type; temperature: 30 C
Saccharomyces cerevisiae [2] = experiment: as above
Protocol: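 MPS profiling in S. cerevisiae of the tFT-X12 degron library: putative degron peptides plus stable controls, 12 aa, fused to the C-terminus of a sfGFP-mCherry timer. Cells are FACS-sorted into 8 mCherry/sfGFP bins and deep-sequenced. PSI runs from 0 (unstable) to 1 (stable). Backgrounds are wild type, das1Δ and doa10Δ at 30 °C, and wild type, das1Δ, cdc34-1 and cdc53-1 at 37 °C; 2-3 technical replicates each.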

[3] = genetic background: cdc34-1, temperature: 37 C
[4] = genetic background: cdc53-1, temperature: 37 C
[5] = genetic background: das1 deletion, temperature: 30 C
[6] = genetic background: das1 deletion, temperature: 37 C
[7] = genetic background: doa10 deletion, temperature: 30 C
[8] = genetic background: wild type, temperature: 30 C
[9] = genetic background: wild type, temperature: 37 C
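Further: PSI is a weighted mean of sequencing reads over stability bins, variants kept only with over 10 reads, mCherry proximal and sfGFP distal, peptide attached via GGGS linker.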

FFLFFLSFGCFL
protein stability index (Saccharomyces cerevisiae [1]): 0.529 ± 0.048
protein stability index (Saccharomyces cerevisiae [2]; [3]): 0.489 ± 0.078
protein stability index (Saccharomyces cerevisiae [2]; [4]): 0.533 ± 0.031
protein stability index (Saccharomyces cerevisiae [2]; [5]): 0.421 ± 0.029
protein stability index (Saccharomyces cerevisiae [2]; [6]): 0.5391 ± 0.0019
protein stability index (Saccharomyces cerevisiae [2]; [7]): 0.4551 ± 0.0028
protein stability index (Saccharomyces cerevisiae [2]; [8]): 0.459 ± 0.032
protein stability index (Saccharomyces cerevisiae [2]; [9]): 0.505 ± 0.016

FFLKPVPSLFLC
protein stability index (Saccharomyces cerevisiae [1]): 0.14 ± 0.014
protein stability index (Saccharomyces cerevisiae [2]; [3]): 0.388 ± 0.015
protein stability index (Saccharomyces cerevisiae [2]; [4]): 0.5971 ± 0.005
protein stability index (Saccharomyces cerevisiae [2]; [5]): 0.519 ± 0.021
protein stability index (Saccharomyces cerevisiae [2]; [6]): 0.6657 ± 0.0034
protein stability index (Saccharomyces cerevisiae [2]; [7]): 0.0796 ± 0.014
protein stability index (Saccharomyces cerevisiae [2]; [8]): 0.0677 ± 0.0064
protein stability index (Saccharomyces cerevisiae [2]; [9]): 0.0767 ± 0.016

FFLVLWSSLLSP
protein stability index (Saccharomyces cerevisiae [1]): 0.454 ± 0.036
protein stability index (Saccharomyces cerevisiae [2]; [3]): 0.457 ± 0.025
protein stability index (Saccharomyces cerevisiae [2]; [4]): 0.5545 ± 0.00086
protein stability index (Saccharomyces cerevisiae [2]; [5]): 0.378 ± 0.035
protein stability index (Saccharomyces cerevisiae [2]; [6]): 0.572 ± 0.006
protein stability index (Saccharomyces cerevisiae [2]; [7]): 0.3584 ± 0.0021
protein stability index (Saccharomyces cerevisiae [2]; [8]): 0.386 ± 0.033
protein stability index (Saccharomyces cerevisiae [2]; [9]): 0.5441 ± 0.0011

FFRPWRLVGCLV
protein stability index (Saccharomyces cerevisiae [1]): 0.331 ± 0.065
protein stability index (Saccharomyces cerevisiae [2]; [3]): 0.263 ± 0.0038
protein stability index (Saccharomyces cerevisiae [2]; [4]): 0.312 ± 0.011
protein stability index (Saccharomyces cerevisiae [2]; [5]): 0.265 ± 0.024
protein stability index (Saccharomyces cerevisiae [2]; [6]): 0.3692 ± 0.0036
protein stability index (Saccharomyces cerevisiae [2]; [7]): 0.189 ± 0.017
protein stability index (Saccharomyces cerevisiae [2]; [8]): 0.215 ± 0.018
protein stability index (Saccharomyces cerevisiae [2]; [9]): 0.266 ± 0.02

FFSFTVLVSYGF
protein stability index (Saccharomyces cerevisiae [1]): 0.352 ± 0.017
protein stability index (Saccharomyces cerevisiae [2]; [3]): 0.18 ± 0.011
protein stability index (Saccharomyces cerevisiae [2]; [4]): 0.256 ± 0.015
protein stability index (Saccharomyces cerevisiae [2]; [5]): 0.192 ± 0.025
protein stability index (Saccharomyces cerevisiae [2]; [6]): 0.34 ± 0.0067
protein stability index (Saccharomyces cerevisiae [2]; [7]): 0.186 ± 0.0095
protein stability index (Saccharomyces cerevisiae [2]; [8]): 0.187 ± 0.023
protein stability index (Saccharomyces cerevisiae [2]; [9]): 0.284 ± 0.0081

FFSLMFVFLTVF
protein stability index (Saccharomyces cerevisiae [1]): 0.278 ± 0.033
protein stability index (Saccharomyces cerevisiae [2]; [3]): 0.113 ± 0.018
protein stability index (Saccharomyces cerevisiae [2]; [4]): 0.131 ± 0.043
protein stability index (Saccharomyces cerevisiae [2]; [5]): 0.201 ± 0.03
protein stability index (Saccharomyces cerevisiae [2]; [6]): 0.276 ± 0.015
protein stability index (Saccharomyces cerevisiae [2]; [7]): 0.192 ± 0.0063
protein stability index (Saccharomyces cerevisiae [2]; [8]): 0.164 ± 0.02
protein stability index (Saccharomyces cerevisiae [2]; [9]): 0.23 ± 0.012

FFSLRRAVTVSA
protein stability index (Saccharomyces cerevisiae [1]): 0.349 ± 0.069
protein stability index (Saccharomyces cerevisiae [2]; [3]): 0.208 ± 0.013
protein stability index (Saccharomyces cerevisiae [2]; [4]): 0.217 ± 0.0034
protein stability index (Saccharomyces cerevisiae [2]; [5]): 0.212 ± 0.028
protein stability index (Saccharomyces cerevisiae [2]; [6]): 0.372 ± 0.0052
protein stability index (Saccharomyces cerevisiae [2]; [7]): 0.168 ± 0.0042
protein stability index (Saccharomyces cerevisiae [2]; [8]): 0.2 ± 0.029
protein stability index (Saccharomyces cerevisiae [2]; [9]): 0.3273 ± 0.002

FFSPFFFFLFRL
protein stability index (Saccharomyces cerevisiae [1]): 0.414 ± 0.058
protein stability index (Saccharomyces cerevisiae [2]; [3]): 0.306 ± 0.11
protein stability index (Saccharomyces cerevisiae [2]; [4]): 0.309 ± 0.0057
protein stability index (Saccharomyces cerevisiae [2]; [5]): 0.366 ± 0.035
protein stability index (Saccharomyces cerevisiae [2]; [6]): 0.453 ± 0.0074
protein stability index (Saccharomyces cerevisiae [2]; [7]): 0.483 ± 0.019
protein stability index (Saccharomyces cerevisiae [2]; [8]): 0.351 ± 0.0064
protein stability index (Saccharomyces cerevisiae [2]; [9]): 0.3971 ± 0.0026

FFVISVVLCLLV
protein stability index (Saccharomyces cerevisiae [1]): 0.43 ± 0.0088
protein stability index (Saccharomyces cerevisiae [2]; [3]): 0.377 ± 0.015
protein stability index (Saccharomyces cerevisiae [2]; [4]): 0.48 ± 0.016
protein stability index (Saccharomyces cerevisiae [2]; [5]): 0.341 ± 0.022
protein stability index (Saccharomyces cerevisiae [2]; [6]): 0.447 ± 0.022
protein stability index (Saccharomyces cerevisiae [2]; [7]): 0.325 ± 0.0033
protein stability index (Saccharomyces cerevisiae [2]; [8]): 0.344 ± 0.019
protein stability index (Saccharomyces cerevisiae [2]; [9]): 0.434 ± 0.015

FFVRSWWVELLF
protein stability index (Saccharomyces cerevisiae [1]): 0.424 ± 0.0097
protein stability index (Saccharomyces cerevisiae [2]; [3]): 0.642 ± 0.029
protein stability index (Saccharomyces cerevisiae [2]; [4]): 0.719 ± 0.017
protein stability index (Saccharomyces cerevisiae [2]; [5]): 0.558 ± 0.026
protein stability index (Saccharomyces cerevisiae [2]; [6]): 0.682 ± 0.024
protein stability index (Saccharomyces cerevisiae [2]; [7]): 0.296 ± 0.0038
protein stability index (Saccharomyces cerevisiae [2]; [8]): 0.335 ± 0.031
protein stability index (Saccharomyces cerevisiae [2]; [9]): 0.5502 ± 0.0055

FFYRFQDLPRIC
protein stability index (Saccharomyces cerevisiae [1]): 0.397 ± 0.074
protein stability index (Saccharomyces cerevisiae [2]; [3]): 0.681 ± 0.018
protein stability index (Saccharomyces cerevisiae [2]; [4]): 0.743 ± 0.037
protein stability index (Saccharomyces cerevisiae [2]; [5]): 0.651 ± 0.015
protein stability index (Saccharomyces cerevisiae [2]; [6]): 0.7358 ± 0.0068
protein stability index (Saccharomyces cerevisiae [2]; [7]): 0.191 ± 0.018
protein stability index (Saccharomyces cerevisiae [2]; [8]): 0.231 ± 0.035
protein stability index (Saccharomyces cerevisiae [2]; [9]): 0.537 ± 0.033

FGFFLFIFFFFR
protein stability index (Saccharomyces cerevisiae [1]): 0.402 ± 0.12
protein stability index (Saccharomyces cerevisiae [2]; [3]): 0.246 ± 0.044
protein stability index (Saccharomyces cerevisiae [2]; [4]): 0.295 ± 0.027
protein stability index (Saccharomyces cerevisiae [2]; [5]): 0.301 ± 0.032
protein stability index (Saccharomyces cerevisiae [2]; [6]): 0.429 ± 0.015
protein stability index (Saccharomyces cerevisiae [2]; [7]): 0.333 ± 0.0034
protein stability index (Saccharomyces cerevisiae [2]; [8]): 0.276 ± 0.039
protein stability index (Saccharomyces cerevisiae [2]; [9]): 0.349 ± 0.031

FGFFRLVIVCFR
protein stability index (Saccharomyces cerevisiae [1]): 0.31 ± 0.16
protein stability index (Saccharomyces cerevisiae [2]; [3]): 0.135 ± 0.046
protein stability index (Saccharomyces cerevisiae [2]; [4]): 0.19 ± 0.021
protein stability index (Saccharomyces cerevisiae [2]; [5]): 0.175 ± 0.032
protein stability index (Saccharomyces cerevisiae [2]; [6]): 0.313 ± 0.0089
protein stability index (Saccharomyces cerevisiae [2]; [7]): 0.176 ± 0.017
protein stability index (Saccharomyces cerevisiae [2]; [8]): 0.172 ± 0.019
protein stability index (Saccharomyces cerevisiae [2]; [9]): 0.283 ± 0.013

FGFWGVVSCCNA
protein stability index (Saccharomyces cerevisiae [1]): 0.63 ± 0.18
protein stability index (Saccharomyces cerevisiae [2]; [3]): 0.559 ± 0.045
protein stability index (Saccharomyces cerevisiae [2]; [4]): 0.566 ± 0.03
protein stability index (Saccharomyces cerevisiae [2]; [5]): 0.472 ± 0.02
protein stability index (Saccharomyces cerevisiae [2]; [6]): 0.599 ± 0.0011
protein stability index (Saccharomyces cerevisiae [2]; [7]): 0.459 ± 0.01
protein stability index (Saccharomyces cerevisiae [2]; [8]): 0.477 ± 0.011
protein stability index (Saccharomyces cerevisiae [2]; [9]): 0.5833 ± 0.0054

FGPRLLRVMRLL
protein stability index (Saccharomyces cerevisiae [1]): 0.22 ± 0.04
protein stability index (Saccharomyces cerevisiae [2]; [3]): 0.562 ± 0.017
protein stability index (Saccharomyces cerevisiae [2]; [4]): 0.712 ± 0.018
protein stability index (Saccharomyces cerevisiae [2]; [5]): 0.639 ± 0.018
protein stability index (Saccharomyces cerevisiae [2]; [6]): 0.7306 ± 0.0047
protein stability index (Saccharomyces cerevisiae [2]; [7]): 0.128 ± 0.017
protein stability index (Saccharomyces cerevisiae [2]; [8]): 0.157 ± 0.044
protein stability index (Saccharomyces cerevisiae [2]; [9]): 0.207 ± 0.061

FGVLFFVFVFVC
protein stability index (Saccharomyces cerevisiae [1]): 0.177 ± 0.024
protein stability index (Saccharomyces cerevisiae [2]; [3]): 0.149 ± 0.015
protein stability index (Saccharomyces cerevisiae [2]; [4]): 0.243 ± 0.051
protein stability index (Saccharomyces cerevisiae [2]; [5]): 0.193 ± 0.02
protein stability index (Saccharomyces cerevisiae [2]; [6]): 0.322 ± 0.011
protein stability index (Saccharomyces cerevisiae [2]; [7]): 0.112 ± 0.021
protein stability index (Saccharomyces cerevisiae [2]; [8]): 0.129 ± 0.022
protein stability index (Saccharomyces cerevisiae [2]; [9]): 0.203 ± 0.03

FGVLLVWWYGLF
protein stability index (Saccharomyces cerevisiae [1]): 0.289 ± 0.039
protein stability index (Saccharomyces cerevisiae [2]; [3]): 0.236 ± 0.016
protein stability index (Saccharomyces cerevisiae [2]; [4]): 0.367 ± 0.027
protein stability index (Saccharomyces cerevisiae [2]; [5]): 0.253 ± 0.05
protein stability index (Saccharomyces cerevisiae [2]; [6]): 0.4335 ± 0.0032
protein stability index (Saccharomyces cerevisiae [2]; [7]): 0.1894 ± 0.0014
protein stability index (Saccharomyces cerevisiae [2]; [8]): 0.204 ± 0.016
protein stability index (Saccharomyces cerevisiae [2]; [9]): 0.314 ± 0.0076

FGVSLFLPLSVV
protein stability index (Saccharomyces cerevisiae [1]): 0.407 ± 0.017
protein stability index (Saccharomyces cerevisiae [2]; [3]): 0.4023 ± 0.0021
protein stability index (Saccharomyces cerevisiae [2]; [4]): 0.415 ± 0.006
protein stability index (Saccharomyces cerevisiae [2]; [5]): 0.32 ± 0.026
protein stability index (Saccharomyces cerevisiae [2]; [6]): 0.46 ± 0.011
protein stability index (Saccharomyces cerevisiae [2]; [7]): 0.281 ± 0.0048
protein stability index (Saccharomyces cerevisiae [2]; [8]): 0.308 ± 0.023
protein stability index (Saccharomyces cerevisiae [2]; [9]): 0.4184 ± 0.0035

FIFYYTVLLLCR
protein stability index (Saccharomyces cerevisiae [1]): 0.181 ± 0.014
protein stability index (Saccharomyces cerevisiae [2]; [3]): 0.0366 ± 0.0015
protein stability index (Saccharomyces cerevisiae [2]; [4]): 0.0671 ± 0.0072
protein stability index (Saccharomyces cerevisiae [2]; [5]): 0.131 ± 0.024
protein stability index (Saccharomyces cerevisiae [2]; [6]): 0.171 ± 0.0048
protein stability index (Saccharomyces cerevisiae [2]; [7]): 0.13 ± 0.0087
protein stability index (Saccharomyces cerevisiae [2]; [8]): 0.115 ± 0.019
protein stability index (Saccharomyces cerevisiae [2]; [9]): 0.1312 ± 0.0012

FIICAASWFFLG
protein stability index (Saccharomyces cerevisiae [1]): 0.224 ± 0.025
protein stability index (Saccharomyces cerevisiae [2]; [3]): 0.456 ± 0.025
protein stability index (Saccharomyces cerevisiae [2]; [4]): 0.624 ± 0.032
protein stability index (Saccharomyces cerevisiae [2]; [5]): 0.474 ± 0.036
protein stability index (Saccharomyces cerevisiae [2]; [6]): 0.62 ± 0.02
protein stability index (Saccharomyces cerevisiae [2]; [7]): 0.109 ± 0.014
protein stability index (Saccharomyces cerevisiae [2]; [8]): 0.127 ± 0.016
protein stability index (Saccharomyces cerevisiae [2]; [9]): 0.225 ± 0.079
